Reference: US20100196361A1, “Method of inhibition of vascular development using an antibody” (DYAX CORP., priority 2003, published 2010)

B1: M0058F03: Tie1-binding antibody; LC SEQ ID NO:604, HC SEQ ID NO:606 (antibody, V domains shown)
VH: EVQLLESGGGLVQPGGSLRLSCAASGFTFSDYGMAWVRQAPGKGLEWVSVISPSGGQTAYADSVKGRFTISRDNSKNTLYLQMNSLRAEDTAVYYCATVRWFGAFDYWGQGTLVTVSS
VL: QDIQMTQSPSTLSASVGDRVTITCRASQGISNYLAWYQQKPGKVPKLLIYGASNLQSGVSSRFSGSGSATDFTLTISSLQPEDFATYYCQQFNSYPLTFGGGTKVEIK
modifications: Antibody
B2: M0055E10: Tie1-binding antibody; LC SEQ ID NO:492, HC SEQ ID NO:494 (antibody, V domains shown)
VH: EVQLLESGGGLVQPGGSLRLSCAASGFTFSAYPMFWVRQAPGKGLEWVSVISPSGGQTSYADSVKGRFTISRDNSKNTLYLQMNSLRAEDTAVYYCAKSFSGLAALDFWGQGTLVTVSS
VL: QDIQMTQSPATLSLSPGERATLSCRASQSVRTYLGWYQQKHGQAPRLLIYDASNRATGIPARFSGSGSGTDFTLTISSLEPEDFAVYYCQQRSNWPLTFGGGTKVEIK
modifications: Antibody
B3: M0060H01: Tie1-binding antibody; LC SEQ ID NO:628, HC SEQ ID NO:630 (antibody, V domains shown)
VH: EVQLLESGGGLVQPGGSLRLSCAASGFTFSYYPMVWVRQAPGKGLEWVSVIVPSGGFTAYADSVKGRFTISRDNSKNTLYLQMNSLRAEDTAMYYCARKRPGNAFDIWGQGTMVTVSS
VL: QDIQMTQSPATLSLSPGERATLSCRASQSVSSYLAWYQQKPGQAPRLLIYDASNRATGIPARFSGSGSGTDFTLTISSLEPEDFAVYYCQQRSNWPVTFGQGTRLEIK
modifications: Antibody
B4: M0054H10: Tie1-binding antibody; LC SEQ ID NO:448, HC SEQ ID NO:450 (antibody, V domains shown)
VH: EVQLLESGGGLVQPGGSLRLSCAASGFTFSQYPMIWVRQAPGKGLEWVSVISPSGGHTSYADSVKGRFTISRDNSKNTLYLQMNSLRAEDTAVYYCARIQYYGGAFDIWGQGKMVTVSS
VL: QDIQMTQSPATLSLSPGERATLSCRASQSVSIYLAWYQQKPGQAPRLLIYDASNRATDIPARFSGSGSGTDFTLTISSLEPEDFAVYYCQQRSSWPITFGLGTRLEIK
modifications: Antibody
B5: E3b Fab: Fab with germlined HC and germlined LC sequence of E3 (antibody, V domains shown)
VH: EVQLLESGGGLVQPGGSLRLSCAASGFTFSMYGMVWVRQAPGKGLEWVSVISPSGGNTGYADSVKGRFTISRDNSKNTLYLQMNSLRAEDTAVYYCARAPRGYSYGYYYWGQGTLVTVSS
VL: DIQMTQSPSSLSASVGDRVTITCRASQGIGHYLAWYQQKPGKVPKLLIYTASTLQSGVPSRFSGSGSGTDFTLTISSLQPEDVATYYCQQFNSYPHTFGQGTRLEIK

Legend:
Tie1 = Tie1 (Homo sapiens, UniProt P35590); experiment: Competition with E3 for binding to Tie1
Tie1, sequence (P35590 22-1138): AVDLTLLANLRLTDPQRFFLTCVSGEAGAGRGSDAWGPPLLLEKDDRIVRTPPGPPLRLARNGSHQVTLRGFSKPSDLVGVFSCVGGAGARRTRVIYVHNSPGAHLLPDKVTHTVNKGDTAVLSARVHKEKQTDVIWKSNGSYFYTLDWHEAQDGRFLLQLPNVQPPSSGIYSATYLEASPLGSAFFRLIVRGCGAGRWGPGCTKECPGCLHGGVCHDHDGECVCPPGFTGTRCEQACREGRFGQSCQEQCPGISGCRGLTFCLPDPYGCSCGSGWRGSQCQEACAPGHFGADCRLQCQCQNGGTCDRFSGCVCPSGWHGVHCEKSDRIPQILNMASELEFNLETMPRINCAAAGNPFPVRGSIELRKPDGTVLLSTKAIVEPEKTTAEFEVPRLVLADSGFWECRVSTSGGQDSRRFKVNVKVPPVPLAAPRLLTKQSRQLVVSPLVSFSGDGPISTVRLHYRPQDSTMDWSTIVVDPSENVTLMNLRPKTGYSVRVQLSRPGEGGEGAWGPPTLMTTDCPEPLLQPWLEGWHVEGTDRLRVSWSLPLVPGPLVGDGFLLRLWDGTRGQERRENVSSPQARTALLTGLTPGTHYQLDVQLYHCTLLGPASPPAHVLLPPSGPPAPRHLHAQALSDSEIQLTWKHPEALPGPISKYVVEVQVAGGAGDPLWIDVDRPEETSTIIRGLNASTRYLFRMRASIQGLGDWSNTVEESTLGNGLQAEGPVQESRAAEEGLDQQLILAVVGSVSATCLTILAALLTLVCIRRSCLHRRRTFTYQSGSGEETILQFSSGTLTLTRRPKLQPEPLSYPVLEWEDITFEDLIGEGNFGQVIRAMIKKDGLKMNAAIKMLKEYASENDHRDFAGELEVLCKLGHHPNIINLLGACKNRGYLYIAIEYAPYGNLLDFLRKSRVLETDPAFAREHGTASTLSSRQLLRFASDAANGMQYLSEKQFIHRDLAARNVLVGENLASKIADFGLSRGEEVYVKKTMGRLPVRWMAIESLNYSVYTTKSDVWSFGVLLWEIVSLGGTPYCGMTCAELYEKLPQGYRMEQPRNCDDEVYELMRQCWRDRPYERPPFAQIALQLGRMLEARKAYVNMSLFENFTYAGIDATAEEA

human Tie1 Fc = target: T1, human Tie1 Fc (Homo sapiens, UniProt P35590); experiment: BIAcore, Fab over Tie1/Fc coated on CM5 chip; assay type: binding; settings: Fab analyte
T1 construct: selected against the Tie1 extracellular domain fused to human Fc or to a histidine purification tag
T1 sequence (P35590 22-759 limits assumed): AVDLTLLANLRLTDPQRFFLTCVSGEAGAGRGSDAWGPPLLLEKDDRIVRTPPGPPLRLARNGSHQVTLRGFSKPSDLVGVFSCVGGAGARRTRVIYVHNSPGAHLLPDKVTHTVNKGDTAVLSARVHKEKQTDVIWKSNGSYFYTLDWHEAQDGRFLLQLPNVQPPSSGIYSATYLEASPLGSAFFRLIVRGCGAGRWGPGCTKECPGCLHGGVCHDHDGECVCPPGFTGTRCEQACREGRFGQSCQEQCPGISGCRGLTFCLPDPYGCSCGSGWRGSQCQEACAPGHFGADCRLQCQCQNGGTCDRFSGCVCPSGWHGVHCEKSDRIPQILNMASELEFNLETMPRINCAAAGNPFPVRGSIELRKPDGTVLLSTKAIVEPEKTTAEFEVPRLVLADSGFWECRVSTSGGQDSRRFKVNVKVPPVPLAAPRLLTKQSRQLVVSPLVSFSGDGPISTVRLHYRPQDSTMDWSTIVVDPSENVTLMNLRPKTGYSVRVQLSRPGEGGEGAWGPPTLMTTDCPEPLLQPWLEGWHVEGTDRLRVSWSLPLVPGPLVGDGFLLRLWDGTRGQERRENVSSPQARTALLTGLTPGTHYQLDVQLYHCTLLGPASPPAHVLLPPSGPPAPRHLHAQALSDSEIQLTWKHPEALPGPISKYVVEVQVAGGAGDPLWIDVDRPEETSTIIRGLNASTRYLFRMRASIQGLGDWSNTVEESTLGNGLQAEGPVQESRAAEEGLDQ
From the text: To evaluate if the binding behaviour had been affected in any way by the conversion of the somatic mutations back to germline residues, the parental and the germlined E3b antibodies were produced and tested in Biacore as Fab fragments. Here, by contrast to what was done for the IgGs (see Example 28), and in order to measure a monovalent interaction, the Fabs were run over the antigen directly coated onto the surface.
Recombinant human Tie1/Fc was coated on a CM5 chip. The surface of the chip was first activated with a 7-minute pulse of 0.05 M NHS/0.2 M EDC, then Tie1/Fc (2 μg/ml in 10 mM sodium acetate, pH 4.0) was run over the chip surface until 750 RUs were coated on the surface. All flow cells were subsequently deactivated with a 7-minute pulse of 1 M ethanolamine hydrochloride, pH 8.5. All further experiments were performed in HBS buffer.
The parental and the germlined E3b Fabs were prepared. A series of dilution (50, 25, 12.5, 6.25 and 3.125 nM) was prepared in HBS buffer. Samples were injected at 30 μl/min for 5.3 minutes using the KINJECT™ program. This was followed by a 10-minute dissociation phase, and the remaining Fab was stripped from the surface with a single 18-sec injection of 50 mM NaOH/1 M NaCl.
Sensorgrams were analyzed using the simultaneous ka/kd fitting program from the BIAEVALUATION™ software 3.1 assuming a 1:1 model.

[1] = target: T2, human Tie1-Fc fusion protein (Homo sapiens, UniProt P35590); experiment: BIAcore 3000 affinity analysis of Fab and IgG; assay type: binding
T2 construct: selected against the Tie1 extracellular domain fused to human Fc or to a histidine purification tag
T2 sequence (P35590 22-759 limits assumed): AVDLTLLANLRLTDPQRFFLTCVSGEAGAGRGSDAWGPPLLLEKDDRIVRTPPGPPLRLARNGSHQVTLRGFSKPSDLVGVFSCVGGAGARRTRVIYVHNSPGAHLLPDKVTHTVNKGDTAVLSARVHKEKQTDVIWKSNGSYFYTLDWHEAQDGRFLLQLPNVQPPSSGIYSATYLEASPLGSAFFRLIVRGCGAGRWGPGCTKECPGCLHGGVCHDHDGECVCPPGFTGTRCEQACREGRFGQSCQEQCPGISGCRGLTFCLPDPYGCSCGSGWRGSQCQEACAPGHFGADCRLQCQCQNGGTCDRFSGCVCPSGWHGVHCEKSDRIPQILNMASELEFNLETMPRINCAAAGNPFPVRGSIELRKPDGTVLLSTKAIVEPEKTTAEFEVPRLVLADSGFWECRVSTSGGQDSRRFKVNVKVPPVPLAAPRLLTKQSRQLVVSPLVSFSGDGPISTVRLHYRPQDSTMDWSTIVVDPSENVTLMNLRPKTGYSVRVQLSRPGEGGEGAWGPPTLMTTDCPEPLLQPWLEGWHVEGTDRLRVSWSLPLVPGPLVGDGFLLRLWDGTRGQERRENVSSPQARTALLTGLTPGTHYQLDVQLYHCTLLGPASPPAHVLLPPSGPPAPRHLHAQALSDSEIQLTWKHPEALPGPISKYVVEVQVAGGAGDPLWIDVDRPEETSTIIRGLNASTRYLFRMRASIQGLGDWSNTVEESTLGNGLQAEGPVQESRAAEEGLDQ
Method: Affinity analysis of the Fab and IgGs was performed using surface plasmon resonance using a BIAcore 3000 instrument. For this analysis both dimeric (Tie1-Fc fusion protein) and monomeric (Tie1-HIS) versions of the extracellular domain of the Tie1 were used. The sensor chips used in these experiments were CM5 (dextran-coated) which allow immobilization of proteins to the chip via standard amine coupling chemistries. The concentration of flowed antibody was determined using a surface plasmon resonance based method. Using a high-density protein A sensor chip, under mass transport limited conditions, the response signal is dependent only on the concentration of the antibody in the sample under test. This approach allows a precise determination of the antibody concentration, a parameter important for accurate determination of the KD.
470 RUs of Tie1 HIS protein were coated on a CM5 sensor chip and 5, 20, 100, and 500 nM of the Fab flowed over the chip at four different flow rates ([…]), rates in which the system is not mass transport limited. Kinetic data was typically determined using a range of analyte concentrations and three different chip coating densities. The data from the lowest coating density that gave a good signal was typically chosen, this was often in a range from 50-100 RUs. Using such low coating densities allowed the sensor curves to be fit using BIAEVALUATION™ 3.0 software to a 1:1 model, often even when using a bivalent analyte (IgG or Tie1-Fc fusion protein). For bivalent analytes, when fit to a 1:1 model was not possible, the curves were fit using a 2:1 model.
The anti-Tie1 antibodies described here bind to both human and mouse Tie1 molecules. The binding of the anti-Tie1 Fab to mouse Tie1-Fc fusion protein was compared with the binding of the anti-Tie1 Fab to human Tie1-Fc fusion protein. In both of these experiments the Tie1-Fc fusion protein was immobilized on the sensor chip and the anti Tie-1 Fab served as the analyte. Under these experimental conditions the anti-Tie1 Fab has very similar KD (˜3 nM) values for both the human and mouse Tie1-Fc fusion proteins (Table 9). Under conditions that are likely to mimic those used in the animal efficacy experiments, i.e. Tie1-Fc immobilized to the CM5 sensor chip and anti-Tie1 used as the analyte, the measured KD was 0.2 nM.

Row | Molecule | competition with E3 for binding to Tie1 (Tie1) | other results
1 | B1 | competes with E3 for binding to Tie1 | 
2 | B2 | competes with E3 for binding to Tie1 | 
3 | B3 | competes with E3 for binding to Tie1 | 
4 | B4 | competes with E3 for binding to Tie1 | 
5 | B5 |  | koff (human Tie1 Fc; Human Tie1 Fc coated on CM5): 0.00101 s⁻¹; kon (human Tie1 Fc; Human Tie1 Fc coated on CM5, 750 RU): 136000 M⁻¹ s⁻¹; Kon [1]: 9300 M⁻¹ s⁻¹; koff [1]: 4.41e-05 s⁻¹
